Assay results: paper PMC10953043, “Fluorogenic Granzyme A Substrates Enable Real‐Time Imaging of Adaptive Immune Cell Activity” (Angewandte Chemie (Weinheim an Der Bergstrasse, Germany), 2023)

Substrate: CC[C@H](C)[C@H](NC(C)=O)C(=O)NCC(=O)N[C@@H](CC(N)=O)C(=O)N[C@@H](CCCNC(=N)N)C(=O)Nc1ccc(COc2ccc3c(c2)OC2=C(/C=C/C4=[N+](C)c5ccccc5C4(C)C)CCCC2=C3)cc1
Assay: fluorogenic NIR assay, Michaelis-Menten fit
Type: biochemical, Homo sapiens
Settings: Tris buffer pH 8, 37 °C, 20 nM hGzmA, cleaved after Arg

B1: human GzmA (hGzmA), active recombinant (Homo sapiens) (protein)
chain: IIGGNEVTPHSRPYMVLLSLDRKTICAGALIAKDWVLTAAHCNLNKRSQVILGAHSITREEPTKQIMLVKKEFPYPCYDPATREGDLKLLQLMEKAKINKYVTILHLPKKGDDVKPGTMCQVAGWGRTHNSASWSDTLREVNITIIDRKVCNDRNHYNFNPVIGMNMVCAGSLRGGRDSCNGDSGSPLLCEGVFRGVTSFGLENKCGDPRGPGVYILLSKKHLNWIIMTIKGAV
notes: active recombinant enzyme (not the pro-form), dimeric
B1 was tested, and the Km was 6.9±1.0×10^-6 M and the kcat was 0.26 ± 0.04 s⁻¹.
